Experimental data from US20080161236 (published 2008).

Experiments:
[1] = target: Botulinum neurotoxin serotype B light chain (Clostridium botulinum, UniProt B1INP5 B1INP5:2-441)
[2] = target: Botulinum neurotoxin serotype B holotoxin (Clostridium botulinum, UniProt B1INP5;B1INP5 B1INP5:2-441,B1INP5:442-1291)
[3] = target: Botulinum neurotoxin serotype A light chain (50 kD zinc endopeptidase) (Clostridium botulinum, UniProt P0DPI1 P0DPI1:2-448)
[4] = target: Botulinum neurotoxin serotype A holotoxin (Clostridium botulinum, UniProt P0DPI1;P0DPI1 P0DPI1:2-448,P0DPI1:449-1296)
Chain of Botulinum neurotoxin serotype A holotoxin (P0DPI1 2-448, chain 1 of 2): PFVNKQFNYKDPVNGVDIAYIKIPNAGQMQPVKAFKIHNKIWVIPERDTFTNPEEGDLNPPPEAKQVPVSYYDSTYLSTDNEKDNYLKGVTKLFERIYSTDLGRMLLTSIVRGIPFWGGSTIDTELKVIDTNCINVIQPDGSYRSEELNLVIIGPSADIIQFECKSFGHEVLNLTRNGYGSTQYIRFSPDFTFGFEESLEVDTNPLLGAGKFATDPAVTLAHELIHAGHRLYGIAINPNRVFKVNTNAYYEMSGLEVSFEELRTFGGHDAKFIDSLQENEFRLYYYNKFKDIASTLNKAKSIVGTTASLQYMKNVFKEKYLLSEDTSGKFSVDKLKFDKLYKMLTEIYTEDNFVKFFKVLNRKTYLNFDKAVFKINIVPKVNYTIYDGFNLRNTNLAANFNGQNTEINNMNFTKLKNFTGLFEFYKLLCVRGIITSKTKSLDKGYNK
Chain of Botulinum neurotoxin serotype A holotoxin (P0DPI1 449-1296, chain 2 of 2): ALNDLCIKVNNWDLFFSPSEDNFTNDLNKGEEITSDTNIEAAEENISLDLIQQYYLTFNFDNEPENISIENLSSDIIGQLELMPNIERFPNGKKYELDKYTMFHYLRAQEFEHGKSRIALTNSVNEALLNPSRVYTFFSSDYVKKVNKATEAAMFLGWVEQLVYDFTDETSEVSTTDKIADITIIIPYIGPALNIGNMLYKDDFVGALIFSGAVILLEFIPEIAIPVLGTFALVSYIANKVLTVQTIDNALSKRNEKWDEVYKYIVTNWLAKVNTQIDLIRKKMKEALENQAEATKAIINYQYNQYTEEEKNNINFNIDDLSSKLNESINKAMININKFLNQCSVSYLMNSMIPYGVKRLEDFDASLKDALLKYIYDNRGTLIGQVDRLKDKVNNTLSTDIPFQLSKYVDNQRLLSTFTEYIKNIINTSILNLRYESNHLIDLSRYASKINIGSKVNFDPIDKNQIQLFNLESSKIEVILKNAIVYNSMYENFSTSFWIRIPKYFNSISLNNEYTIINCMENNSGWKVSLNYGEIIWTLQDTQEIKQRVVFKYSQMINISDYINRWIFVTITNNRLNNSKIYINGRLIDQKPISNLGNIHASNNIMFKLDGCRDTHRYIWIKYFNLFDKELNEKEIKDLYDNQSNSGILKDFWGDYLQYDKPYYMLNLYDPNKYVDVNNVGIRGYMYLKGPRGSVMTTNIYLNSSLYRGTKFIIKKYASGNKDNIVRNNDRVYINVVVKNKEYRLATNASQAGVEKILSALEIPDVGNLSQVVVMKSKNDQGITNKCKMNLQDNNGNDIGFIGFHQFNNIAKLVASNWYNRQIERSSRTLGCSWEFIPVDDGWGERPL

Measured: binding result

Chain of Botulinum neurotoxin serotype A light chain (50 kD zinc endopeptidase) (P0DPI1 2-448, one chain of several): as the sequence (P0DPI1 2-448, chain 1 of 2) above
Chain of Botulinum neurotoxin serotype B holotoxin (B1INP5 2-441, chain 1 of 2): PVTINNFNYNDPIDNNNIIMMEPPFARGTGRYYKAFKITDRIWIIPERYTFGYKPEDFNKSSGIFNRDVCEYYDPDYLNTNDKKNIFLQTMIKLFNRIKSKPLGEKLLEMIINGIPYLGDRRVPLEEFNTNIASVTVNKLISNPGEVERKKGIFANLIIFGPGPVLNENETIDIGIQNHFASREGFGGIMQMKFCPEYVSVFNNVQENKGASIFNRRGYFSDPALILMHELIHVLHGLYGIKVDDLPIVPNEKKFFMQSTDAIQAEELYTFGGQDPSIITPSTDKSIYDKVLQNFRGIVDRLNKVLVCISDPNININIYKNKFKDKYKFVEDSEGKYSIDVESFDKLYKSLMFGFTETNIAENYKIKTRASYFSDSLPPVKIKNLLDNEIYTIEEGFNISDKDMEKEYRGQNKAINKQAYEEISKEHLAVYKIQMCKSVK
Chain of Botulinum neurotoxin serotype B holotoxin (B1INP5 442-1291, chain 2 of 2): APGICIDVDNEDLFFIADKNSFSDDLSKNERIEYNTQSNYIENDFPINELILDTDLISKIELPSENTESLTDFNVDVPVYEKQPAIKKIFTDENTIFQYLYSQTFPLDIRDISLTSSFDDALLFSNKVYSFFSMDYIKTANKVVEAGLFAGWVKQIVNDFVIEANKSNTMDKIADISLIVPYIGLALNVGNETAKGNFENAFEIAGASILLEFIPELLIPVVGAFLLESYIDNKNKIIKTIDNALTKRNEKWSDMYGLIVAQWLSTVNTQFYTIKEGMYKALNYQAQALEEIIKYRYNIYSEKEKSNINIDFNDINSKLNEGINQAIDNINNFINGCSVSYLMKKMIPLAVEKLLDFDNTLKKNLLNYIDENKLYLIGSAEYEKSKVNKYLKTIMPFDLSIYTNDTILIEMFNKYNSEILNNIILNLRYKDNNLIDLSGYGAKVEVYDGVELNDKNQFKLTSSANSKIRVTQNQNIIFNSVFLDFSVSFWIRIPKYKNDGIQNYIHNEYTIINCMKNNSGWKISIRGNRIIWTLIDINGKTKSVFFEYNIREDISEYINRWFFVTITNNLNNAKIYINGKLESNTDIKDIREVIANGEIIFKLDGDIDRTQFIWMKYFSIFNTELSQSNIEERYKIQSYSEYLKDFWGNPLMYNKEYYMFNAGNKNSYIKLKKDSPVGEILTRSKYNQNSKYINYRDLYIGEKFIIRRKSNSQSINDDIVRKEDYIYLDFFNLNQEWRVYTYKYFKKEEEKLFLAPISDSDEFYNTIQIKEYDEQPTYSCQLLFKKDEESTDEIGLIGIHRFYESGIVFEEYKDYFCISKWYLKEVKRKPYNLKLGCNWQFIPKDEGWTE
Chain of Botulinum neurotoxin serotype B light chain (B1INP5 2-441, one chain of several): as the sequence (B1INP5 2-441, chain 1 of 2) above

B1: BoNT A/B LC aptamer (ssDNA)
DNA: CATCCGTCACACCTGCTCTGATCAGGGAAGACGCCAACACTGGTGTTGGCTCCCGTATCA
binds: all assays above

B2: BoNT A/B HT aptamer (ssDNA)
DNA: CATCCGTCACACCTGCTCTGCTATCACATGCCTGCTGAAGTGGTGTTGGCTCCCGTATCA
binds: [1] | [2] | [3]
